Laboratory results as given in patent US20260193326A1 (published 2026).

Tests used:
Assay in all cases: SPR, AAV amine-coupled to CM5 chip;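 further: nanobodies flowed as analyte at seven concentrations spanning 1–100 nM over immobilized AAV (500–800 RU), kinetic constants derived by fitting the binding curves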
AAV8 = molecular target: T1, AAV8 (adeno-associated virus 8)
T1 construct: also called adeno-associated virus serotype 8
Procedure: (§1) AAV was amine-coupled to a CM5 sensor chip at a density of 500-800 response units (RU). Nanobodies were injected at seven concentrations (1-100 nM) with a flow rate of 45 μL/min, and chip regeneration was performed using glycine-HCl (pH 1.5). Binding curves at different nanobody concentrations were used to calculate kinetic parameters (Kₐ, Kd, KD) (Table 2 and FIG. 2).

AAV2 = molecular target: T2, AAV2 (adeno-associated virus 2, UniProt P03135 1-735)
T2 construct: also called adeno-associated virus serotype 2
Procedure: as §1

AAV5 = molecular target: T3, AAV5 (adeno-associated virus 5)
T3 construct: also called adeno-associated virus serotype 5
Procedure: as §1

AAV9 = molecular target: T4, AAV9 (adeno-associated virus 9)
T4 construct: also called adeno-associated virus serotype 9
Procedure: as §1

Binder	Kd (AAV8)	koff (AAV8)	kon (AAV8)	Kd (AAV2)	koff (AAV2)	Kd (AAV5)	koff (AAV5)	kon (AAV5)	Kd (AAV9)	koff (AAV9)	kon (AAV9)	kon (AAV2)
A4-054 (VHH) VHH: VQLQESGGGLVQPGGSLRLSCAASGSAFSINTMGWYRQAPGKQRELVAAVTRGGSTNYADSVKGRFTISRDNAKNTVYLQMNSLRPEDTAVYYCHVDEVRQSSWTTSNLWGQGTQVTVSS	368 nM	0.0018 s⁻¹	4890 M⁻¹ s⁻¹	1060 nM	0.00114 s⁻¹	213 nM	0.00163 s⁻¹	7660 M⁻¹ s⁻¹	28.9 nM	0.00025 s⁻¹	8660 M⁻¹ s⁻¹	
A4-077 (VHH) VHH: VQLQESGGGLVQPGGSLRLSCAASGSMFSINIMGWYRQAPGKQREFVATITRGGSTNYADFVKGRFTISRDNAKNTVYLQMNSLRPEDTAVYYCHVDELRDSSWTTSNLWGQGTQVTVSS	2.92 nM	0.00038 s⁻¹	130000 M⁻¹ s⁻¹	4.63 nM	0.00046 s⁻¹	0.987 nM	0.00019 s⁻¹	193000 M⁻¹ s⁻¹	1.87 nM	0.00037 s⁻¹	198000 M⁻¹ s⁻¹	99300 M⁻¹ s⁻¹
A4-083 (VHH) VHH: VQLQESGGGLVQTGGSLKLSCAASGSRFSLNTMGWYRQAPRKQREFVAAVTRGGNTNYGDFVKGRFTISRDNAKNTVYLQMNSLRPEDTAVYYCHVDELRESSWTTSNLWGQGTQVTVSS	42.4 nM	0.00737 s⁻¹	174000 M⁻¹ s⁻¹	944 nM	0.00344 s⁻¹	31 nM	0.00287 s⁻¹	92500 M⁻¹ s⁻¹	92.3 nM	0.00657 s⁻¹	71200 M⁻¹ s⁻¹	3640 M⁻¹ s⁻¹
A4-074 (VHH) VHH: VQLQESGGGLVQSGGSLRLSCAASGSMFSLNTMGWYRQAPGKQRELVATITRGGGTSYADSVKGRFTISRDNAKNTVYLQMNSLRPEDTAVYYCHVDELRQSSWTTSNLWGQGTQVTVSS	19.2 nM	0.00181 s⁻¹	94100 M⁻¹ s⁻¹	14.3 nM	0.00157 s⁻¹	4.64 nM	0.00081 s⁻¹	175000 M⁻¹ s⁻¹	6.03 nM	0.00017 s⁻¹	28200 M⁻¹ s⁻¹	110000 M⁻¹ s⁻¹
A4-089 (VHH) VHH: VQLQESGGGLVQPGGSLRLSCAASGSNFSINTMGWYRQAPGKQRELVATFTRAGNTNYADSVKGRFTISRDNGKNTVYLQMNSLRPEDTAVYYCHVDEVRDSSWTTSNLWGQGTQVTVSS	4.48 nM	0.00054 s⁻¹	121000 M⁻¹ s⁻¹	4.28 nM	0.0008 s⁻¹	163 nM	0.00099 s⁻¹	6080 M⁻¹ s⁻¹	2.29 nM	0.00041 s⁻¹	179000 M⁻¹ s⁻¹	187000 M⁻¹ s⁻¹
A4-067 (VHH) VHH: VQLQESGGGLVQTGGSLRLSCAASGRAFSLNTMGWYRQAPGKWRELVATVTRGGSTNYAGSVKGRFTISRDNTKNTVYLQMNNLRPEDTAVYYCHVDEVRESSWTTSNLWGQGTQVTVSS	128 nM	0.00044 s⁻¹	3440 M⁻¹ s⁻¹	16 nM	3e-05 s⁻¹	7.14 nM	2e-05 s⁻¹	2800 M⁻¹ s⁻¹	106 nM	0.00035 s⁻¹	3320 M⁻¹ s⁻¹	1870 M⁻¹ s⁻¹
A4-056 (VHH) VHH: VQLQESGGGLVQPGGSLRLSCAASGSAFSINTMGWYRQAPGKQREKVAAVTRGGSTNYADSVKGRFTISRDNAKNTVYLQMNSLRPEDTAVYYCHVDEVRQSSWTTSNLWGQGTQVTVSS	265 nM	0.00779 s⁻¹	29400 M⁻¹ s⁻¹	224 nM	0.00485 s⁻¹	622 nM	0.00648 s⁻¹	10400 M⁻¹ s⁻¹	96.9 nM	0.00887 s⁻¹	91500 M⁻¹ s⁻¹	21600 M⁻¹ s⁻¹
A4-064 (VHH) VHH: VQLQESGGGLVQSGGSLRLSCAASGRNFSLNTVGWYRQAPGKQRELVATVTSGGGTNYAGSVKGRFTISRDNAKNTVYLQMNSLRPEDTAVYYCHVDEVRESTWTTSNLWGQGTQVTVSS	227 nM	0.0017 s⁻¹	7500 M⁻¹ s⁻¹	75.7 nM	0.0005 s⁻¹	81.8 nM	0.00046 s⁻¹	5620 M⁻¹ s⁻¹	420 nM	0.00128 s⁻¹	3050 M⁻¹ s⁻¹	6600 M⁻¹ s⁻¹
A4-071 (VHH) VHH: VQLQESGGGAVQAGGSLRLSCAASGSTFSINTMGWYRQAPGKQRELVATVTRGGSTNYGDFVKGRFTISRDNAKNTVYLQMNTLRPEDTAVYYCHLDEVRQSSWTTSNLWGQGTQVTVSS	16.4 nM	0.00137 s⁻¹	83300 M⁻¹ s⁻¹	93 nM	0.002 s⁻¹	9.46 nM	0.00171 s⁻¹	181000 M⁻¹ s⁻¹	30.9 nM	0.00176 s⁻¹	57000 M⁻¹ s⁻¹	21500 M⁻¹ s⁻¹
A4-072 (VHH) VHH: VQLQESGGGLAQPGGSLRLSCAASGSSFVINTMGWYRQAPGKQREFVATVTRGGSTNYGEFVKGRFTISRDNAKNTVYLQMNSLRPEDTAVYYCHVDELRQSSWTTSNLWGQGTQVTVSS	27.1 nM	0.00044 s⁻¹	16300 M⁻¹ s⁻¹	3.93 nM	0.00021 s⁻¹	3.79 nM	0.00038 s⁻¹	100000 M⁻¹ s⁻¹	1.29 nM	0.00018 s⁻¹	140000 M⁻¹ s⁻¹	53500 M⁻¹ s⁻¹
A4-068 (VHH) VHH: VQLQESGGGLVQTGGSLRLSCAASGRAFSLNTMGWYRQAPGKWRELVATVTRGGSTNYAGSVKGRFTISRDNAKNTVYLQMNNLRPEDTAVYYCHVDEVRESSWTTSNLWGQGTQVTVSS	182 nM	0.00436 s⁻¹	24000 M⁻¹ s⁻¹	11.9 nM	0.00167 s⁻¹	45.3 nM	0.00608 s⁻¹	134000 M⁻¹ s⁻¹	31.9 nM	0.00349 s⁻¹	109000 M⁻¹ s⁻¹	141000 M⁻¹ s⁻¹
A4-088 (VHH) VHH: VQLQESGGGLVQTGGSLRLSCAASGSRFSLNTMGWYRQAPGKQRELVAAVTRGGNTNYGDFVKGRFTISRDNAKNTVYLQMNSLRPEDTAVYYCHVDELRESSWTTSNLWGQGTQVTVSS	538 nM	0.00454 s⁻¹	8440 M⁻¹ s⁻¹	2420 nM	0.00993 s⁻¹	201 nM	0.00146 s⁻¹	7260 M⁻¹ s⁻¹	234 nM	0.00177 s⁻¹	7570 M⁻¹ s⁻¹	4100 M⁻¹ s⁻¹
A4-076 (VHH) VHH: VQLQESGGGLVHSGGSLRLSCAASGSMFSLNTMGWYRQAPGKQRELVATITRGGGTSYADSVKGRFTISRDNAKNTVYLQMNSLRPEDTAVYYCHVDELRQSSWTTSNLWGQGTQVTVSS	98.1 nM	0.00092 s⁻¹	9380 M⁻¹ s⁻¹	73.6 nM	0.00056 s⁻¹	37 nM	0.00015 s⁻¹	4060 M⁻¹ s⁻¹	8.16 nM	6e-05 s⁻¹	7360 M⁻¹ s⁻¹	7610 M⁻¹ s⁻¹
